Reference: patent US7521540B2, “CYR61 compositions and methods” (Munin Corporation, priority 1996, dated 2009)

What was measured:
[1] = Heparin binding assay (salt elution from heparin-Sepharose/agarose)
[2] = system: HUVE cells; assay: HUVE cell adhesion to hCyr61-coated plates; format: cell-based, human; conditions: serum-free conditions
Description: Immunological plates (96-well ProBind assay plates, Falcon) were coated with 0.1-30 μg/ml hCyr61, fibronectin (Gibco BRL) or vitronectin (Gibco BRL) in phosphate-buffered saline (PBS) containing 0.1% protease-free BSA (Sigma) for 16 hrs at 4° C. The wells were blocked with 1% BSA in PBS for 1 hr at room temperature and washed with PBS. […] In some experiments, fbs was added to 5-10%. Also, in experiments involving vitronectin-coateci plates, endogenous vitronectin was removed from fbs by immunoaffinity chromatography using bovine polyclonal anti-vitronectin antibodies (Gibco). Norris et al., J. Cell Sci. 95:255-262 (1990). Cells were plated at 10^4 cells/well. After 2 hours, cells were fixed with 4% paraformaldehyde, stained with methylene blue and quantified as described. Oliver et al., J. Cell Sci. 92:513-518 (1989).
The ability of HUVE cells to adhere to hCyr61-coated plates in the presence of mock-immunodepleted fbs and serum immunodepleted with anti-bovine vitronectin antibodies were compared. […] The addition of vitronectin (30 μg/ml) to vitronectin-immunodepleted serum restored the ability of HUVE cells to adhere and spread on hCyr61-coated plates to the same level observed when whole serum was used in the cell attachment assay. […]
Additionally, HUVE cell attachment and spreading in the presence of an increasing quantity of vitronectin was examined. […]

[3] = system: 1064SK human skin fibroblasts; assay: Human skin fibroblast migration; format: cell-based; conditions: 1064SK cells
[4] = system: cornea; assay: Cornea assay for angiogenic factors; format: in vivo, rat; conditions: rat, in vivo
Text: Another assay for modulators of angiogenesis is an in vivo assay for assessing the effect of a suspected modulator in the presence of an ECM signaling molecule-related biomaterial, such as Cyr61, on angiogenesis is the Cornea Assay. The Cornea Assay takes advantage of the absence of blood vessels in the cornea, which in the presence of an angiogenic factor, results in the detectable development of capillaries extending from the sclera into the cornea. Friedlander et al., Science 270:1500-1502 (1995). This ingrowth of new blood vessels from the sclera can be microscopically monitored. Further, the visually determined rate of migration can be used to assess changes in the rate of angiogenesis. These cornea assays may be performed using a wide variety of animal models. Preferably, the cornea assays are performed using rats. By way of example, an assay for suspected modulators of Cyr61 using this assay is disclosed. To perform this assay, Cyr61 is initially titrated using primary capillary endothelial cells to determine effective concentrations of Cyr61. Subsequently, Cyr61, in the presence or absence of a suspected modulator, is surgically implanted into the corneas of mammalian laboratory animals, e.g., rabbits or rats. In a preferred embodiment, Cyr61 (or Cyr61 and a suspected modulator) is embedded in a biocompatible matrix, using matrix materials and techniques that are standard in the art. Subsequently, eyes containing implants are visually observed for growth of the readily visible blood vessels within the eye. Control implantations may consist of physiologically balanced buffers embedded in the same type of matrix and implanted into eyes of the same type of laboratory animal receiving the Cyr61-containing implants.
Although rats of various sizes can be used in the cornea assay, a preferred size for the rats is 150-200 g/animal. Anesthesia is induced with Methoxyflurane and is maintained for 40-60 minutes with sodium pentobarbital (50 mg/kg, delivered intraperitoneally). The eyes are gently opened and secured in place by clamping the upper eyelid with a non-traumatic hemostat. Two drops of sterile proparacaine hydrochloride (0.5%) are then placed on each eye as to effect local anesthesia. Using a suitable surgical blade such as a No. 11 Bard Parker blade, an approximately 1.5 mm incision is made approximately 1 mm from the center of the cornea. […] Once the cornea pocket is made, the spatula is removed and the distance between the limbus and base of the pocket is measured to make sure the separation is at least about 1 mm. […]
Following surgery, animals are examined daily for seven days with the aid of a stereomicroscope to check for inflammation and responses. […] During this seven day period, animals are monitored for implant position and corneal exudate. […]

[5] = system: NIH 3T3 cells; conditions: U.S. Pat. No. 5,408,040; cited from earlier work
[6] = system: 1064SK primary human foreskin fibroblasts; assay: Fibroblast adhesion assay (methylene blue, A620); format: cell-based; conditions: protein coated on wells
Description: The ability of Cyr61 to mediate cell adhesion in normal fibroblasts was investigated. Microtiter wells were coated with purified recombinant Cyr61 protein, and 1064SK primary human foreskin fibroblasts were allowed to adhere under serum-free conditions. […] 50 μl cell suspensions were plated on microtiter wells coated with varying concentrations (0.5-5.0 μg/ml) of Cyr61 protein. After incubation at 37° C. for 30 minutes, adherent cells were fixed and stained with methylene blue.
In another experiment, microtiter wells were coated with either BSA, Cyr61 (2 μg/ml), or vitronectin (VN; 0.5 μg/ml) and blocked with affinity-purified anti-Cyr61 antibodies for one hour at 37° C. before 1064SK cells were plated.
The effects of divalent cations in cell adhesion to Cyr61 was also investigated. […] Data are means from triplicate determinations. […] Inhibition by Ca^2+ is characteristic of adhesion through some members of the β1 family of integrins, including receptors that bind type I collagen, laminin, and vitronectin (integrins α2β1, α6β1, and αVβ1) in fibroblasts, as well as the lymphocyte-specific integrin αLβ2.
The effects of RGD peptides on Cyr61-mediated fibroblast binding was tested by plating cells in wells coated with Cyr61 (2 μg/ml). Type I collagen (2 μg/ml) or vitronectin (0.5 μg/ml), 2 mM GRGDSP or GRGESP peptide was then added.
Cells were also pre-incubated with 40 μg/ml monoclonal antibodies against the integrin α5 or the integrin αV subunits at room temperature for 30 minutes, then plated on wells coated with Cyr61 (2 μg/ml), vitronectin (0.5 μg/ml) or fibronectin (FN, 1 μg/ml). […] The data are means, representative of three experiments.
The 1064 SK cells were also analyzed using the monoclonal antibody JBIA, which binds the β1 integrin subunit. Cells were pre-incubated with the antibody (50 μg/ml) before plating on microtiter wells coated with Cyr61 (2 μg/ml), Type I collagen (2 μg/ml), or vitronectin (0.5 μg/ml). […] Data are means, representative of three experiments.
To identify the specific β1 integrin that mediates fibroblast adhesion to Cyr61, the inhibitory effects of function-blocking monoclonal antibodies were tested against various integrin α subunits. […] The data are means, representative of at least three experiments.

[7] = system: HUVE cells; assay: HUVE cell adhesion to wild-type and double-mutant Cyr61; format: cell-based, human
Description: Immobilized cells were stained with methylene blue and absorbances (A620) were recorded. relative binding capacities (binding of cells not exposed to a pre-incubation compound defined as 100%) are presented in Table III.

[8] = system: primary human foreskin fibroblasts; assay: Cyr61-regulated gene expression (multi-gene blot, Northern); format: cell-based
Description: Purified, soluble, recombinant Cyr61 protein was added to cultures of primary human foreskin fibroblasts for 24 hours. From these cells, mRNA was isolated for preparation of probes to hybridize to a multi-gene blot (Clontech Atlas Human Array 1.2 cat no. 7850-1) containing about 650 genes. The levels of expression of these genes in Cyr61-treated cells were compared to that of control cells. […] These findings have been confirmed by Northern blot analysis showing increases or decreases of the mRNAs in question in Cyr61-treated cells. A time course of expression changes has been established. In particular, by 6 hours after its addition, Cyr61 has induced expression of VEGF-A mRNA and the induction is still evident at 12 and 24 hours post-addition. Also at 12 and 24 hours post-addition, Cyr61 has induced expression of VEGF-A polypeptide. With respect to VEGF-C, induction of mRNA is clearly evident 12 hours after addition of Cyr61 and the induction persists at least through 24 hours post-addition. Cyr61 is expected to induce the expression of VEGF-C polypeptide with similar kinetics.

B1: human Cyr61: Human Cyr61, 381 amino acids, SEQ ID NO:4, expressed in the baculovirus system (protein, listed as Homo sapiens)
chain: MSSRIARALALVVTLLHLTRLALSTCPAACHCPLEAPKCAPGVGLVRDGCGCCKVCAKQLNEDCSKTQPCDHTKGLECNFGASSTALKGICRAQSEGRPCEYNSRIYQNGESFQPNCQHQCTCIDGAVGCIPLCPQELSLPNLGCPNPRLVKVTGQCCEEWVCDEDSIKDPMEDQDGLLGKELGFDASEVELTRNNELIAVGKGRSLKRLPVFGMEPRILYNPLQGQKCIVQTTSWSQCSKTCGTGISTRVTNDNPECRLVKETRICEVRPCGQPVYSSLKKGKKCSKTKKSPEPVRFTYAGCLSVKKYRPKYCGSCVDGRCCTPQLTRTVKMRFRCEDGETFSKNVMMIQSCKCNYNCPHANEAAFPFYRLFNDIHKFRD
- heparin binding [1]: quantitatively bound to heparin-agarose
- HUVE cell attachment and spreading [2]: mediated cell attachment but not spreading
- migration of human fibroblasts [3]: induced migration of the human fibroblast cells

B2: CTGF: Human ortholog of Fisp12, SEQ ID NO:8 (protein, listed as Homo sapiens)
chain: MTAASMGPVRVAFVVLLALCSRPAVGQNCSGPCRCPDEPAPRCPAGVSLVLDGCGCCRVCAKQLGELCTERDPCDPHKGLFCDFGSPANRKIGVCTAKDGAPCIFGGTVYRSGESFQSSCKYQCTCLDGAVGCMPLCSMDVRLPSPDCPFPRRVKLPGKCCEEWVCDEPKDQTVVGPALAAYRLEDTFGPDPTMIRANCLVQTTEWSACSKTCGMGISTRVTNDNASCRLEKQSRLCMVRPCEADLEENIKKGKKCIRTPKISKPIKFELSGCTSMKTYRAKFCGVCTDGRCCTPHRTTTLPVEFKCPDGEVMKKNMMFIKTCACHYNCPGDNDIFESLYYRKMYGDMA
- angiogenic effect in cornea assay [4]: confirm the effect of angiogenic factors
- migration of NIH 3T3 and BASM cells (reported) [5]: reported to induce the migration

B3: DM: Cyr61 double mutant with both heparin-binding motifs mutated (SEQ ID NO:30 region) (protein)
chain: TCPAACHCPLEAPKCAPGVGLVRDGCGCCKVCAKQLNEDCSKTQPCDHTKGLECNFGASSTALKGICRAQSEGRPCEYNSRIYQNGESFQPNCKHQCTCIDGAVGCIPLCPQELSLPNLGCPNPRLVKVSGQCCEEWVCDEDSIKDSLDDQDDLLGLDASEVELTRNNELIAIGKGSSLKRLPVFGTEPRVLFNPLHAHGQKCIVQTTSWSQCSKSCGTGISTRVTNDNPECRLVKETRICEVRPCGQPVYSSSLKAGAACSATAKSPEPVRFTYAGCSSVAAYAPKYCGCVDGRCCTPLQTRTVKMRFRCEDGEMFSKNVMMIQSCKCNYNCPHPNEASFRLYSLFNDIHKFRD
- heparin binding [1]: severely deficient in heparin binding
- NaCl concentration of elution from heparin-Sepharose/agarose ([1]; increasing salt concentrations): up to 0.25 M NaCl
- support of 1064SK fibroblast adhesion [6]: unable to support 1064SK fibroblast adhesion at any concentration tested
- HUVEC binding [7]: still mediated HUVEC binding
- induction of VEGF, MMP1, MMP3 etc. [8]: do not induce the expression of the above-referenced genes
